In PMC3154933, “The Nucleotide Exchange Factor Ric-8A Is a Chaperone for the Conformationally Dynamic Nucleotide-Free State of Gαi1” (PLoS ONE, 2011):
No end group written: not given here.

Molecular target: T1, Ric-8AΔC492 (rat Ric-8A residues 1–492) (rat, UniProt Q80ZG1 1-492)
T1 construct: Ric-8A, rat, residues 1-492; The His tag is used to adsorb it to IMAC resin in the NMR experiment; also called ΔC492Ric-8A; source: E. coli BL21 (DE3)-RIPL, purified (nickel NTA-agarose, UNO-Q); not shown: His6, N-terminal, kept
T1 sequence (looked up): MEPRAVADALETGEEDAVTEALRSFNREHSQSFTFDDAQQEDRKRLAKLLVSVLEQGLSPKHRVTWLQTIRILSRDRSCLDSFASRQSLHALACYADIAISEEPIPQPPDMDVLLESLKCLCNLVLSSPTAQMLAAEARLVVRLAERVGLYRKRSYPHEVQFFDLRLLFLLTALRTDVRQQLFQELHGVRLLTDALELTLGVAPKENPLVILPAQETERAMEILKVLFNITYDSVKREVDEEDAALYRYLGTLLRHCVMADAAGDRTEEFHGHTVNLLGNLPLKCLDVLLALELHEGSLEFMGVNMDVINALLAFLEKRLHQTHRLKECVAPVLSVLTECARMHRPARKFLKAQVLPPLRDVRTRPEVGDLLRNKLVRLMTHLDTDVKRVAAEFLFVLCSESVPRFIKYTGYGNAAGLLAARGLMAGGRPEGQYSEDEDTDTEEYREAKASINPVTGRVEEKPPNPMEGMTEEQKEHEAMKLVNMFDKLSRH
Assay: ITC; 250 µM peptide injected into 25 µM Ric-8A in the cell, 25°C, single binding site model
Details: both partners purified

B1: Gαi1C18, amidated peptide of the 18 C-terminal residues of rat Gαi1 (peptide)
peptide: DAVTDVIIKNNLKDCGLF-NH2
notes: Gαi1, rat, the C-terminal 18 residues; source: synthetic peptide (FMOC chemistry, HPLC purified)
Q: Which results are given for B1?
A: Kd: 12 µM; dH: -5.3 kcal/mol; stoichiometry N: 0.9
